The source of these data is patent US20020142982.

In series [1] the target is Flag-tagged wild-type EDG-1 receptor (UniProt P21453).
The target in series [2] is R231K EDG-1 mutant receptor (UniProt P21453).
The target in series [3] is R233K EDG-1 mutant receptor (UniProt P21453).
The target of series [4] is T236A EDG-1 mutant receptor (UniProt P21453).
Series [5] addresses GST-i3 polypeptide from EDG-3 (UniProt Q99500).
Series [6] deals with GST-i3 polypeptide from EDG-5 [GST: P08515].
The next series addresses GST-i3T236V polypeptide (UniProt P21453).
The target of series [7] is glutathione S-transferase (GST)-EDG-1-i3 (UniProt P21453).
Sequence of glutathione S-transferase (GST)-EDG-1-i3 (P21453 other isoform, or with tags, fused parts or gaps): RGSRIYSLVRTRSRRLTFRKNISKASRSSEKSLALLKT

Sequence of Flag-tagged wild-type EDG-1 receptor (P21453 whole entry): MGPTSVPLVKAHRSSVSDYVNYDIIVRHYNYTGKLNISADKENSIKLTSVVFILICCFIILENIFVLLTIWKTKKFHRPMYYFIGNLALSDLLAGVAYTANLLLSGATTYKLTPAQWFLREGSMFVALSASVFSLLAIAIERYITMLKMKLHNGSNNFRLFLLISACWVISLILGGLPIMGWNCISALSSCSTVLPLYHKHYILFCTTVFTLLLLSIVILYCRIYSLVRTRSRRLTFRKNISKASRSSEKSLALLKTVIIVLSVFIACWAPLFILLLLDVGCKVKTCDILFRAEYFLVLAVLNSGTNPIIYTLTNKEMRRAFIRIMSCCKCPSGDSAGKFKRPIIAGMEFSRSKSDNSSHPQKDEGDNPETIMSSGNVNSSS
Sequence of R231K EDG-1 mutant receptor (P21453 whole entry R231K): as the sequence (P21453 whole entry) above, with R231K counted along it
Sequence of T236A EDG-1 mutant receptor (P21453 whole entry T236A): as the sequence (P21453 whole entry) above, with T236A counted along it
Sequence of R233K EDG-1 mutant receptor (P21453 whole entry R233K): as the sequence (P21453 whole entry) above, with R233K counted along it
Sequence of GST-i3 polypeptide from EDG-3 (Q99500 217-243): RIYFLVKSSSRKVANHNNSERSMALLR
Sequence of GST-i3T236V polypeptide (P21453 whole entry T236V, looked up, tested part not stated): as the sequence (P21453 whole entry) above, with T236V counted along it
Sequence of GST-i3 polypeptide from EDG-5 [GST: P08515] (P08515 whole entry, looked up): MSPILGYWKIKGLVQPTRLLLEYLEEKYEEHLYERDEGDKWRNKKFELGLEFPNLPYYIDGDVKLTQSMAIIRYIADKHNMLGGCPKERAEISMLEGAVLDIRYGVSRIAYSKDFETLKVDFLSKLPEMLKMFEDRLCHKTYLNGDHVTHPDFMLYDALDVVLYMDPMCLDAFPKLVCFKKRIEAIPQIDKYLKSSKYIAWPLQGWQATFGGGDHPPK

Consider p90^RSK (active kinase), for which the “in vitro phosphorylation of immunoprecipitated receptor” value in series [1], in series [2], in series [3] and in series [4] was “in vitro phosphorylation with p90^RSK was similar in wild-type as well as in the three mutants” in each case.

As to recombinant, active Akt, the “in vitro phosphorylation of immunoprecipitated receptor” value in series [1], in series [2], in series [3] and in series [4] was “All three mutants were phosphorylated very poorly by the active Akt kinase in an in vitro phosphorylation reaction when compared to the wild-type EDG-1” each time. In addition, the “in vitro phosphorylation (32P incorporation, SDS-PAGE)” value in series [5], in series [6] and in series [7] was “only the GST-EDG-1-i3 was phosphorylated by Akt” in each case. Also, the “in vitro phosphorylation (32P-phosphate incorporation)” value in the series with GST-i3T236V polypeptide was “^32P-phosphate incorporation into the GST-i3T236V polypeptide was significantly reduced upon incubation with Akt”.
